# Reference: patent US20260226110A1
# Target: single antigen M1 peptide segment of monkeypox virus (monkeypox virus isolate MPXV_USA_2022_MA001) (UniProt M1LBP0)
# Chain of UniProt M1LBP0 (M1LBP0 1-181 limits assumed): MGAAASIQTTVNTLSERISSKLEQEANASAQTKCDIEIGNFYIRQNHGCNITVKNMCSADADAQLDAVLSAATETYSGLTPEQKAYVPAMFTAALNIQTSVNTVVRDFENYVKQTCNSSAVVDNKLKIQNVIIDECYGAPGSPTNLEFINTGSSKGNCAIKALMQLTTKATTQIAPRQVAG
substance,measurement,value
neutralizing antibody 7D11,koff,0.00476 s⁻¹
same,kon,1.44e+06 M⁻¹ s⁻¹
